Laboratory results from the MegaScale stability set (Tsuboyama et al. 2023).

B1: HEEH_KT_rd6_3546 (parent)
chain: SEEDKEREHWERLNRDFELRVLDTTFIAHHAEEVIKLLRWLEK

Variants of: B1
Experiment: folding stability dG (cDNA display proteolysis); higher = more stable
Details: PBS, room temperature

Variant	folding stability dG
SEEDKEREHWERLNRDFELRVLDTTQIAHHAEEVIKLLRWLEK [F26Q]	0.576 kcal/mol
SEEDKEREHWERLNRDFELRVLDTTSIAHHAEEVIKLLRWLEK [F26S]	0.703 kcal/mol
SEEDKEREHWERLNRDFELRVLDTTVIAHHAEEVIKLLRWLEK [F26V]	0.759 kcal/mol
SEEDKEREHWERLNRDFELRVLDTTRIAHHAEEVIKLLRWLEK [F26R]	0.974 kcal/mol
SEEDKEREHWERLNRDFELRVLDTTWIAHHAEEVIKLLRWLEK [F26W]	1.7 kcal/mol
SEEDKEREHWERLNRDFELRVLDTTTIAHHAEEVIKLLRWLEK [F26T]	0.642 kcal/mol
SEEDKEREHWERLNRDFELRVLDTTYIAHHAEEVIKLLRWLEK [F26Y]	1.04 kcal/mol
SEEDKEREHWERLNRDFELRVLDTTFLAHHAEEVIKLLRWLEK [I27L]	1.37 kcal/mol
SEEDKEREHWERLNRDFELRVLDTTFYAHHAEEVIKLLRWLEK [I27Y]	1.25 kcal/mol
SEEDKEREHWERLNRDFELRVLDTTFMAHHAEEVIKLLRWLEK [I27M]	1.12 kcal/mol
SEEDKEREHWERLNRDFELRVLDTTFPAHHAEEVIKLLRWLEK [I27P]	0.57 kcal/mol
SEEDKEREHWERLNRDFELRVLDTTFWAHHAEEVIKLLRWLEK [I27W]	1.88 kcal/mol
SEEDKEREHWERLNRDFELRVLDTTFHAHHAEEVIKLLRWLEK [I27H]	0.648 kcal/mol
SEEDKEREHWERLNRDFELRVLDTTFKAHHAEEVIKLLRWLEK [I27K]	0.613 kcal/mol
SEEDKEREHWERLNRDFELRVLDTTFCAHHAEEVIKLLRWLEK [I27C]	2.33 kcal/mol
SEEDKEREHWERLNRDFELRVLDTTFEAHHAEEVIKLLRWLEK [I27E]	0.508 kcal/mol
SEEDKEREHWERLNRDFELRVLDTTFRAHHAEEVIKLLRWLEK [I27R]	0.466 kcal/mol
SEEDKEREHWERLNRDFELRVLDTTFDAHHAEEVIKLLRWLEK [I27D]	0.608 kcal/mol
SEEDKEREHWERLNRDFELRVLDTTFQAHHAEEVIKLLRWLEK [I27Q]	0.497 kcal/mol
SEEDKEREHWERLNRDFELRVLDTTFNAHHAEEVIKLLRWLEK [I27N]	0.776 kcal/mol

Variant	folding stability dG
SEEDKEREHWERLNRDFELRVLDTTFGAHHAEEVIKLLRWLEK [I27G]	0.669 kcal/mol
SEEDKEREHWERLNRDFELRVLDTTFTAHHAEEVIKLLRWLEK [I27T]	0.562 kcal/mol
SEEDKEREHWERLNRDFELRVLDTTFAAHHAEEVIKLLRWLEK [I27A]	0.784 kcal/mol
SEEDKEREHWERLNRDFELRVLDTTFSAHHAEEVIKLLRWLEK [I27S]	0.654 kcal/mol
SEEDKEREHWERLNRDFELRVLDTTFFAHHAEEVIKLLRWLEK [I27F]	1.58 kcal/mol
SEEDKEREHWERLNRDFELRVLDTTFVAHHAEEVIKLLRWLEK [I27V]	0.996 kcal/mol
SEEDKEREHWERLNRDFELRVLDTTFIIHHAEEVIKLLRWLEK [A28I]	1.82 kcal/mol
SEEDKEREHWERLNRDFELRVLDTTFIEHHAEEVIKLLRWLEK [A28E]	0.888 kcal/mol
SEEDKEREHWERLNRDFELRVLDTTFIRHHAEEVIKLLRWLEK [A28R]	1.48 kcal/mol
SEEDKEREHWERLNRDFELRVLDTTFIKHHAEEVIKLLRWLEK [A28K]	1.29 kcal/mol
SEEDKEREHWERLNRDFELRVLDTTFIHHHAEEVIKLLRWLEK [A28H]	0.802 kcal/mol
SEEDKEREHWERLNRDFELRVLDTTFIWHHAEEVIKLLRWLEK [A28W]	2.14 kcal/mol
SEEDKEREHWERLNRDFELRVLDTTFIFHHAEEVIKLLRWLEK [A28F]	1.94 kcal/mol
SEEDKEREHWERLNRDFELRVLDTTFICHHAEEVIKLLRWLEK [A28C]	2.23 kcal/mol
SEEDKEREHWERLNRDFELRVLDTTFIPHHAEEVIKLLRWLEK [A28P]	0.699 kcal/mol
SEEDKEREHWERLNRDFELRVLDTTFIVHHAEEVIKLLRWLEK [A28V]	1.51 kcal/mol
SEEDKEREHWERLNRDFELRVLDTTFITHHAEEVIKLLRWLEK [A28T]	1.2 kcal/mol
SEEDKEREHWERLNRDFELRVLDTTFILHHAEEVIKLLRWLEK [A28L]	1.99 kcal/mol
SEEDKEREHWERLNRDFELRVLDTTFIDHHAEEVIKLLRWLEK [A28D]	0.777 kcal/mol
SEEDKEREHWERLNRDFELRVLDTTFIMHHAEEVIKLLRWLEK [A28M]	1.84 kcal/mol

Variant	folding stability dG
SEEDKEREHWERLNRDFELRVLDTTFINHHAEEVIKLLRWLEK [A28N]	0.915 kcal/mol
SEEDKEREHWERLNRDFELRVLDTTFIGHHAEEVIKLLRWLEK [A28G]	1.01 kcal/mol
SEEDKEREHWERLNRDFELRVLDTTFIYHHAEEVIKLLRWLEK [A28Y]	1.64 kcal/mol
SEEDKEREHWERLNRDFELRVLDTTFISHHAEEVIKLLRWLEK [A28S]	1.15 kcal/mol
SEEDKEREHWERLNRDFELRVLDTTFIQHHAEEVIKLLRWLEK [A28Q]	0.99 kcal/mol
SEEDKEREHWERLNRDFELRVLDTTFIAFHAEEVIKLLRWLEK [H29F]	2.21 kcal/mol
SEEDKEREHWERLNRDFELRVLDTTFIALHAEEVIKLLRWLEK [H29L]	1.59 kcal/mol
SEEDKEREHWERLNRDFELRVLDTTFIANHAEEVIKLLRWLEK [H29N]	1.3 kcal/mol
SEEDKEREHWERLNRDFELRVLDTTFIADHAEEVIKLLRWLEK [H29D]	1.05 kcal/mol
SEEDKEREHWERLNRDFELRVLDTTFIACHAEEVIKLLRWLEK [H29C]	1.85 kcal/mol
SEEDKEREHWERLNRDFELRVLDTTFIAGHAEEVIKLLRWLEK [H29G]	1.17 kcal/mol
SEEDKEREHWERLNRDFELRVLDTTFIAEHAEEVIKLLRWLEK [H29E]	1.45 kcal/mol
SEEDKEREHWERLNRDFELRVLDTTFIAIHAEEVIKLLRWLEK [H29I]	2.5 kcal/mol
SEEDKEREHWERLNRDFELRVLDTTFIAKHAEEVIKLLRWLEK [H29K]	1.77 kcal/mol
SEEDKEREHWERLNRDFELRVLDTTFIARHAEEVIKLLRWLEK [H29R]	1.68 kcal/mol
SEEDKEREHWERLNRDFELRVLDTTFIAMHAEEVIKLLRWLEK [H29M]	1.98 kcal/mol
SEEDKEREHWERLNRDFELRVLDTTFIAPHAEEVIKLLRWLEK [H29P]	0.857 kcal/mol
SEEDKEREHWERLNRDFELRVLDTTFIAAHAEEVIKLLRWLEK [H29A]	1.49 kcal/mol
SEEDKEREHWERLNRDFELRVLDTTFIAQHAEEVIKLLRWLEK [H29Q]	1.23 kcal/mol
